Assay results reported in US20100129346A1 (G2 INFLAMMATION, published 2010).
No end group written: not given here. *: point of attachment. Biotin = O=C1N[C@H]2[C@H](CS[C@H]2CCCCC(=O)*)N1

T1: Biotinylated Human C5aR Peptide (2nd loop), peptide 23 (human, N-terminal biotin)
T1 construct: immobilised on a streptavidin sensor chip for BIACore; also called Biotinylated-Peptide 23; Biot-peptide
T1 peptide: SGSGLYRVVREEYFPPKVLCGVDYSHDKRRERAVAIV

T2: 12-mer peptide VREEYFPPKVLC of the human C5aR second extracellular loop (human)
T2 construct: Parent peptide of the alanine scan; each mutant has one residue replaced by alanine
T2 peptide: Biotin-GSGSVREEYFPPKVLC

T3: human C5aR (human, UniProt P21730 1-350)
T3 construct: On human neutrophils, on hC5aR-transfected L1.2 cells or on neutrophils of hC5aR knock-in mice; also called hC5aR; C5a receptor
T3 chain: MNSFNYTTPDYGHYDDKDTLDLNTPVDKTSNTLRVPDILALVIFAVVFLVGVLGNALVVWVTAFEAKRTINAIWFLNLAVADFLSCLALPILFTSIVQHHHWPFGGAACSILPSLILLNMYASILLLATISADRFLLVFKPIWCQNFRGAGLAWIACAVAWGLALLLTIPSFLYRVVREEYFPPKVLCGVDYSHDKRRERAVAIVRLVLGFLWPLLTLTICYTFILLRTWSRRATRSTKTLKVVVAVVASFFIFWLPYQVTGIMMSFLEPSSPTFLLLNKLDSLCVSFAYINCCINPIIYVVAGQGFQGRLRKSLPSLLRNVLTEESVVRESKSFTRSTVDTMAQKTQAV

B1: MAb 7H3 (antibody, V domains shown)
VH: EVKLEESGGGLVQPGGSMKLSCVASGFTFSDAWMDWVRQSPEKGLEWVAGIRNRANNHATYYVASVKGRFTVSRDDSKSSVYLQMNSLRAEDAGIYYCTRGDGYFFDYWGQGTTLTVSS
VL: DVVLTQTPLSLSVSLGDQASISCRSGQSLVHSNGNTYLHWYLQKPGQSSKLLIYKVSNRLSGVPDRFSGSGSGTDFTLKISRVEAEDLGVYFCSQTTHVPPTFGGGTKLEIK
notes: Mouse monoclonal antibody from a hybridoma (ECACC 06081802); also called 7H3-N9
B2: MAb 3C5 (antibody, V domains shown)
VH: DVQLQESGPGLVKPSQSLSLTCSVTGYSITSGNYWNWIRQFPGKKLEWMGHISYDGNNKYNPSLKNRISITRDTSKNQFFLRLNSVTAEDTAAYYCALFYFDYASFTYWGQGTLVTVSA
VL: DVVMTQTPLSLPVSLGDQASISCRSSQSLVHSNGNTYLHWYLRKPGQSPKLLIYKVSNRFSGVPDRFSGSGSGTDFTLKISRVEAEDLGVYFCSQSTHVPPTFGAGTKLELK
B3: MAb 7F3 (antibody, V domains shown)
VH: QVQLQQSGPELVKPGASVKISCKASGYAFSNSWMNWVKQRPGKGLEWIGRIYPGDGDTKYNGKFKGKATLTADKSSSTAYMQLSSLTSEDSAVYFCARFLLISTVTAVDYWGQGTTLTVSS
VL: DVVMTQSPLSLPVSLGNQASISCRSSQSLVHSNGNTYLHWYLQKPGQSPKLLIYKVSNRFSGVPDRFSGSGSGTDFSLKISRVEAEDLGVYFCSQSTLVPLTFGAGTKLELK
B4: MAb 8G7 (antibody, V domains shown)
VH: DIQLQESGPGLVKPSQSLSLTCSVTGYSITSGHYWNWIRQLPGNKMEWMGHISNDGSNRYNPSLKNRISITRDTSKNQFFLKLNSVTTEDTATYYCALFYFAYASFAYWGQGTLVTVSA
VL: DVVMTQTPLSLPVSLGDQASISCRSSQSLLHSNGNTYLHWYLQKPGQSPKLLIYKVSTRFSGVPDRFSGSGSGADFTLQISRVEAEDLGVYLCSQSTHVPPTFGAGTKLVLT
notes: Mouse monoclonal antibody from a hybridoma (ECACC 06081803); also called 8G7-M6

Key:
[1] = biological target: T1, Biotinylated Human C5aR Peptide (2nd …); experiment: SPR (BIACore 2000), biotinylated peptide 23 on SA chip, mAb as analyte
[2] = biological target: T2, 12-mer peptide VREEYFPPKVLC of the …; experiment: peptide ELISA, biotinylated peptide on streptavidin-coated plates [b]
Method: Streptavidin-coated microtiter plates (NUNC) were coated with 10 μg/ml of peptide/well in a volume of 200 μl, and incubated at 4° C. overnight. Plates were washed three times with ELISA wash buffer (0.05% Tween 20 in PBS). MAbs were added at 2.5 μg/ml, and plates were incubated for 3 hrs at room temperature. HRP-conjugated rabbit anti-mouse IgG antibody diluted 1:1000 in ELISA wash buffer was used for detection. Plates were developed using TMB (3,3′,5,5′ tetramethyl benzidine, SIGMA) and read at […].

human C5aR [3] = biological target: T3, human C5aR; experiment: competitive 125I-C5a ligand binding to hC5aR on human neutrophils; blocked ligand human C5a; 3 experiments; the table's column has no unit, nM is that of the axis Log Conc (nM)
Method: (§1) Human neutrophils were washed and re-suspended in binding buffer (50 mM HEPES, pH7.5, 1 mM CaCl2, 5 mM MgCl2, and 0.5% BSA) at 1×10⁷/ml. For each binding reaction (in a final volume of 120 μl), 40 μl cell suspension (4×10⁵ cells) with an appropriate amount of anti-hC5aR mAb, isotype matched control mAb or unlabelled human C5a (SIGMA) was incubated at room temperature for 15 min. ¹²⁵I-labelled human C5a (Perkin Elmer) was added at a final concentration of 0.4 nM and the reactions were incubated at room temperature for 60 min. Cells were then collected and washed 3 times with binding buffer containing 150 mM NaCl. Cells were then transferred to Opti plates (Perkin Elmer) with MicroScint 20 scintillation fluid and radioactivity counted on TopCount (Packard). Each sample was assayed in triplicate.
(§2) Further competitive ligand binding studies were conducted to measure ¹²⁵I-C5a displacement from hC5aR on hC5aR-transfected L1.2 cells with 7F3 or 3C5.

[4] = biological target: T1, Biotinylated Human C5aR Peptide (2nd …); experiment: SPR (BIACore), biotinylated peptide 23 on SA chip; reference 7F3
[5] = biological target: T1, Biotinylated Human C5aR Peptide (2nd …); experiment: SPR (BIACore), biotinylated peptide 23 on SA chip; experiment 1
human C5aR [6] = biological target: T3, human C5aR; experiment: competition with 125I-C5a (0.4 nM) for binding to human neutrophils; human neutrophils
Method: as §1, §2

human C5aR [7] = biological target: T3, human C5aR; experiment: displacement of 125I-C5a from hC5aR on hC5aR-transfected L1.2 cells; hC5aR-transfected L1.2 cells
[8] = biological target: T1, Biotinylated Human C5aR Peptide (2nd …); experiment: SPR (BIACore), biotinylated peptide 23 on SA chip; experiment 2 (100 nM-0.78 nM, 20 min dissociation)
Method: (§3) Additional BIACore analyses were performed to compare binding affinities of antibodies 7F3 and 3C5 to peptide 23 under varying conditions. The conditions for these additional BIAcore experiments were as described above under “Experimental Details” with the following modifications: [0295] Experiment 2: Antibody concentrations included in kinetic analysis—100 nM-0.78 nM; 20 min dissociation. [0296] Experiment 3: Antibody concentrations included in kinetic analysis—7F3: 25 nM-0.78 nM,; 3C5: 6.25nM-0.78nM; 5 min dissociation. [0297] Experiment 4: Antibody concentrations included in kinetic analysis—7F3: 25 nM-1.56 nM,; 3C5: 6.25 nM-0.4 nM; 1 min association, 3 min dissociation.

[9] = biological target: T1, Biotinylated Human C5aR Peptide (2nd …); experiment: SPR (BIACore), biotinylated peptide 23 on SA chip; experiment 3 (6.25 nM-0.78 nM, 5 min dissociation)
Method: as §3

[10] = biological target: T1, Biotinylated Human C5aR Peptide (2nd …); experiment: SPR (BIACore), biotinylated peptide 23 on SA chip; experiment 4 (6.25 nM-0.4 nM, 1 min association, 3 min dissociation)
Method: as §3

human C5aR [11] = biological target: T3, human C5aR; experiment: competition with 125I-C5a (0.4 nM) for binding to human neutrophils
human C5aR [12] = biological target: T3, human C5aR; experiment: displacement of 125I-C5a from hC5aR on hC5aR-transfected L1.2 cells
[13] = biological target: T1, Biotinylated Human C5aR Peptide (2nd …); experiment: SPR (BIACore), biotinylated peptide 23 on SA chip; experiment 3 (25 nM-0.78 nM, 5 min dissociation)
[14] = biological target: T1, Biotinylated Human C5aR Peptide (2nd …); experiment: SPR (BIACore), biotinylated peptide 23 on SA chip; experiment 4 (25 nM-1.56 nM, 1 min association, 3 min dissociation)

Row | Binder | Ka [1] | Kd [1] | koff [1] | kon [1] | binding result [2] | IC50 (human C5aR [3]) | Ka [5] | Kd [5] | koff [5] | kon [5] | Ka [8] | Kd [8] | koff [8] | kon [8] | other results
1 | B1 | 5.97e+07 M⁻¹ | 16700 pM | 0.00995 s⁻¹ | 595000 M⁻¹ s⁻¹ | binds | 275 pM | – | – | – | – | – | – | – | – | –
2 | B2 | 2.1e+09 M⁻¹ | 480 pM | 0.0016 s⁻¹ | 3.3e+06 M⁻¹ s⁻¹ | – | – | 1.3e+09 M⁻¹ | 760 pM | 0.00052 s⁻¹ | 680000 M⁻¹ s⁻¹ | 2.2e+09 M⁻¹ | 450 pM | 0.0007 s⁻¹ | 1.5e+06 M⁻¹ s⁻¹ | fold improved affinity over 7F3 [4]: ~1.5 fold; IC50 (human C5aR [6]): 171 pM; EC50 (human C5aR [7]): 21 pM; Ka [9]: 9.6e+08 M⁻¹; Kd [9]: 1040 pM; koff [9]: 0.00111 s⁻¹; kon [9]: 1.06e+06 M⁻¹ s⁻¹; Ka [10]: 7.16e+08 M⁻¹; Kd [10]: 1400 pM; koff [10]: 0.00144 s⁻¹; kon [10]: 1.03e+06 M⁻¹ s⁻¹
3 | B3 | 1.4e+09 M⁻¹ | 700 pM | 0.00045 s⁻¹ | 640000 M⁻¹ s⁻¹ | – | – | 5.4e+08 M⁻¹ | 1800 pM | 0.00038 s⁻¹ | 210000 M⁻¹ s⁻¹ | 8.1e+08 M⁻¹ | 1200 pM | 0.00035 s⁻¹ | 290000 M⁻¹ s⁻¹ | IC50 (human C5aR [11]): 503 pM; EC50 (human C5aR [12]): 480 pM; Ka [13]: 7.19e+08 M⁻¹; Kd [13]: 1390 pM; koff [13]: 0.000462 s⁻¹; kon [13]: 332000 M⁻¹ s⁻¹; Ka [14]: 4.79e+08 M⁻¹; Kd [14]: 2090 pM; koff [14]: 0.000598 s⁻¹; kon [14]: 286000 M⁻¹ s⁻¹
4 | B4 | 6.3e+08 M⁻¹ | 1600 pM | 0.0059 s⁻¹ | 3.7e+06 M⁻¹ s⁻¹ | binds | 214 pM | – | – | – | – | – | – | – | – | –
